The values that follow come from paper PMC8864007 (2022).

Test [1] deals with T1, HER2-Fc protein (human, UniProt P04626 23-652). The test is described as follows: SPR.
Test [2] has as its target T1, HER2-Fc protein. In words: ELISA. A general note: In an ELISA, binding on a coated surface is turned into a signal by an enzyme label.
The target of test [3] is T2, murine HER2 (murine, UniProt P70424 23-1256).
T2 chain: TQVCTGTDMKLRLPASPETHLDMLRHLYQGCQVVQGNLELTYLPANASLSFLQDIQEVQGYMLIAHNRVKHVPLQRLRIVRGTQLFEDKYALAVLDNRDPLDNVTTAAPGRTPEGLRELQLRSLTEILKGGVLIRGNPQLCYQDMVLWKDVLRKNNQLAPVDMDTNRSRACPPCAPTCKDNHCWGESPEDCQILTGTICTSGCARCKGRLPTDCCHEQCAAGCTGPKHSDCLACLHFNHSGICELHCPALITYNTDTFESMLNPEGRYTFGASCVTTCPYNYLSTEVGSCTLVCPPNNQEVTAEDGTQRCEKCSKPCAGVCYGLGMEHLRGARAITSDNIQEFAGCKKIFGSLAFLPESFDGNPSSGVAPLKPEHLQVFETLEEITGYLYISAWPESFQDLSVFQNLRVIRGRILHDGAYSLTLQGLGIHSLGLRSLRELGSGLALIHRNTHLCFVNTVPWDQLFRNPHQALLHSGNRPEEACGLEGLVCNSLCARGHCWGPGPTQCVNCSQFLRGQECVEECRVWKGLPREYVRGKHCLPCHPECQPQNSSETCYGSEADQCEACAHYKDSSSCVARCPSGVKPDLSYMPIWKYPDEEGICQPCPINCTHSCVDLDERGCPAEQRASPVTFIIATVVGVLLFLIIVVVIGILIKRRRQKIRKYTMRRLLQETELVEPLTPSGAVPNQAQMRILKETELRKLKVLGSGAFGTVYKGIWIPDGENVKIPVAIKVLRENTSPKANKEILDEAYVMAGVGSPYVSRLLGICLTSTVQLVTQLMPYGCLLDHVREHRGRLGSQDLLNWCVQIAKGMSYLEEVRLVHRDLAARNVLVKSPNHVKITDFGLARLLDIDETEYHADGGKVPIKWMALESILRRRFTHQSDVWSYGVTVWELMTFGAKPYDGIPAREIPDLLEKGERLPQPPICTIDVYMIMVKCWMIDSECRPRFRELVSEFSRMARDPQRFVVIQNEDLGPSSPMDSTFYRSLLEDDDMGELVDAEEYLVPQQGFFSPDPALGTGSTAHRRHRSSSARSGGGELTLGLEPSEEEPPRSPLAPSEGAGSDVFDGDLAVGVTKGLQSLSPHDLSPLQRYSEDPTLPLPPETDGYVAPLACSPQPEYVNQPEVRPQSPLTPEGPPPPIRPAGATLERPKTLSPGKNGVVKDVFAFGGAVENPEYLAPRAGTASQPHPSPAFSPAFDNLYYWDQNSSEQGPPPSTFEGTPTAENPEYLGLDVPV
In words: ELISA.

Test [4] has as its target Rhesus HER2-Fc. The test is described as follows: ELISA.
In test [5] the target is Human HER3-Fc. In words: ELISA.
Test [6] concerns the target Human HER2-His6. In words: ELISA.
In test [7] the target is Human EGFR-Fc. In words: ELISA.
In test [8] the target is Rat HER2-Fc. In words: ELISA.
The target in test [9] is Cynomolgus HER2-Fc. The test is described as follows: ELISA.
Test [10] addresses Human IgG Fc. In words: ELISA.
Test [11] addresses Human HER4-Fc. In words: ELISA.
The target in test [12] is Canine HER2-Fc. In words: ELISA.

B1: VHH_1028 (VHH)
VHH: EVQLVESGGGLVQAGGSLRLSCAASGITFSINTMGWYRQAPGKQRELVALISSIGDTYYADSVRGRFTISRDNAKNTVYLQMNSLKPEDTAVYYCKRFRTAAQGTDYWGQGTQVTVSS
On to B1, for which, in test [1], the koff (in general, the rate constant with which the complex falls apart) was 0.000718 s⁻¹. Further, the EC50 (commonly the concentration giving half of the maximal effect) was 0.77 nM in [2]; over 10000 nM in [3]; 1.18 nM in test [4]; over 10000 nM in test [5]; 0.69 nM in test [6]; over 10000 nM in [7]. Further, the concentration for a half-maximal effect (EC50) was over 10000 nM in [8]; 1.19 nM in test [9]; over 10000 nM in [10]; over 10000 nM in [11]; 1.09 nM in [12].

B2: iso-SGMIB-VHH_1028 (VHH)
VHH: EVQLVESGGGLVQAGGSLRLSCAASGITFSINTMGWYRQAPGKQRELVALISSIGDTYYADSVRGRFTISRDNAKNTVYLQMNSLKPEDTAVYYCKRFRTAAQGTDYWGQGTQVTVSS
modifications: one iso-SGMIB (non-radioactive) conjugated, mono-substituted; site not stated
In turn, B2 returned an off-rate (koff) in test [1] of 0.00071 s⁻¹.
